One may read the IC50 as the concentration at which inhibition is half-maximal. Read a high IC50 as weaker potency in that assay. The term Kd denotes the concentration at which binding is half-saturated. What is called koff is the rate constant with which the complex falls apart. For orientation: kon means the second-order rate constant of association.

Read-outs that look alike come from different tables or passages of the source.

The source of these data is patent US20230203146A1 (Boehringer Ingelheim, published 2023).

Assay [1] deals with T1, N-terminally FLAG-tagged mouse Ang2 (HEK293T conditioned medium) (mouse, UniProt O35608 19-496).
T1 construct: may be a nucleotide entry; also called mAng2; FLAG-mAng2
T1 sequence: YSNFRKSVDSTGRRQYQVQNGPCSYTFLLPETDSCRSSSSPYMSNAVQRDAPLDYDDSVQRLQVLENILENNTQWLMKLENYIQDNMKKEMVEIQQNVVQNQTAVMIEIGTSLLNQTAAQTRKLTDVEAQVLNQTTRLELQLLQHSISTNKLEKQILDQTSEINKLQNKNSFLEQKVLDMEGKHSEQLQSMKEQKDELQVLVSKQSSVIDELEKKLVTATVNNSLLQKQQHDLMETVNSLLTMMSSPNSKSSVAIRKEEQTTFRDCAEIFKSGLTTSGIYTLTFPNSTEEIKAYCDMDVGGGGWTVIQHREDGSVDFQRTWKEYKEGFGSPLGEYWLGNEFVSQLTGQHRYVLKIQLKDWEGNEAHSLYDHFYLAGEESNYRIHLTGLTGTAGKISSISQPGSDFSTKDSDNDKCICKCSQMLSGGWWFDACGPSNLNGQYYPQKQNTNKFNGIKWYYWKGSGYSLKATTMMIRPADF
In words: competition ELISA, periplasmic extract, FLAG-mAng2 on mTie2/Fc. The method, then:
In brief, human Tie2/Fc chimera (R&D Systems, Minneapolis, Minn., USA) is biotinylated using N-hydroxysulfosuccinimide ester of biotin (Thermo Fisher Scientific, Rockford, Ill., USA). […] To this mixture, the Acceptor beads and 0.3 nM biotinylated human Tie2/Fc chimeras are added and further incubated for 2 hours at room temperature. Finally, streptavidin conjugated Donor beads (Perkin Elmer, Waltham, Mass., US) are added and the mixture is incubated for an additional 2 hours at room temperature. Assay buffer is PBS+0.03% Tween-20+0.1% BSA. Fluorescence is measured using the Envision Multilabel Plate reader (Perkin Elmer, Waltham, Mass., USA) using an excitation wavelength of 680 nm and an emission wavelength of 520 nm. […] In brief, human or mouse Tie2/Fc chimera (R&D Systems, Minneapolis, Minn., USA) are immobilized at 2 μg/mL overnight at 4° C. in a 96-well MaxiSorp plate (Nunc, Wiesbaden, Germany). Wells are blocked with a 1% casein solution. […] This mixture is added to the Tie2/Fc coated well and incubated for 2 hours at room temperature. Residual binding of Ang is detected using HRP-conjugated anti-FLAG M2 antibody (Sigma, St Louis, Mo., USA).
On the technique in general: An ELISA detects its analyte on a solid surface through an enzyme-linked reagent.

In assay [2] the target is T1, N-terminally FLAG-tagged mouse Ang2 …. As to the kind of experiment: competition ELISA, FLAG-mAng2 on coated mTie2-Fc. Here is the method: (§1) In brief, 2 μg/mL of recombinant mouse Tie2-Fc or cyno Tie2-Fc is coated overnight at 4° C. in a 96-well MaxiSorp plate (Nunc, Wiesbaden, Germany). Coated wells are blocked with a 1% casein solution.
Assay [3] shares this target. In words: competition ELISA, FLAG-mAng2 on coated mTie2-Fc. The method, then:
as §1
The source holds these as a separate data set.

Assay [4] deals with T2, recombinant mouse Ang2-FLD (mouse, UniProt O35608 275-496, limits assumed).
T2 construct: domain: FLD
T2 sequence (looked up): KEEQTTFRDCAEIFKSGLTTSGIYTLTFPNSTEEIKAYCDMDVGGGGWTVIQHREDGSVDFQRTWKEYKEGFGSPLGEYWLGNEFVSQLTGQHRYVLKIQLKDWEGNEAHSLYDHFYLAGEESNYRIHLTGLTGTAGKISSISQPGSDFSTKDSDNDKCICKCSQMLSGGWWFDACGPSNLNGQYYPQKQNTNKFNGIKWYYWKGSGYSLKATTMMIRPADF
As to the kind of experiment: SPR (Biacore T100), binder on CM5 chip, Ang2-FLD as analyte. Here is the method:
(§2) In brief, VHH and benchmark compounds are immobilized on a CM5 chip via amine coupling. […] Ang2-FLD species are allowed to associate for 2 min and to dissociate for 20 min at a flow rate of 45 μL/min. In between injections, the surfaces are regenerated with a 10 sec pulse of 25 mM NaOH and 60 sec stabilization period. Association/dissociation data are evaluated by fitting a 1:1 interaction model (Langmuir binding). The affinity constant KD is calculated from resulting association and dissociation rate constants kₐ and kd and are depicted in Table 8.
(In SPR one partner is held on a chip, and binding of the other changes the refractive index at the surface.)

Assay [5] deals with T3, recombinant cynomolgus Ang2-FLD (cynomolgus).
T3 construct: domain: FLD; also called cyno Ang2-FLD
The description is as above. The method, then:
as §2

Assay [6] deals with T4, recombinant human Ang2-FLD (human, UniProt O15123 275-496, limits assumed).
T4 construct: domain: FLD; not used
T4 sequence (looked up): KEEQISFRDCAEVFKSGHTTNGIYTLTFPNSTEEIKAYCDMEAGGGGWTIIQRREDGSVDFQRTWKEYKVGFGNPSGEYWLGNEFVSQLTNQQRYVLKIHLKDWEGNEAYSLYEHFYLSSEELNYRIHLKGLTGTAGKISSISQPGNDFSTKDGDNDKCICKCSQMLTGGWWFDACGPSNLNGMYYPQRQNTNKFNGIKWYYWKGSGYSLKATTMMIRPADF
The assay is described as above. The method, then: as §2

The target of assay [7] is T5, N-terminally FLAG-tagged cynomolgus Ang2 (HEK293T conditioned medium) (cynomolgus, UniProt O15123 19-496 (human entry), limits assumed).
T5 construct: may be a nucleotide entry; also called cAng2; FLAG-cAng2
T5 chain: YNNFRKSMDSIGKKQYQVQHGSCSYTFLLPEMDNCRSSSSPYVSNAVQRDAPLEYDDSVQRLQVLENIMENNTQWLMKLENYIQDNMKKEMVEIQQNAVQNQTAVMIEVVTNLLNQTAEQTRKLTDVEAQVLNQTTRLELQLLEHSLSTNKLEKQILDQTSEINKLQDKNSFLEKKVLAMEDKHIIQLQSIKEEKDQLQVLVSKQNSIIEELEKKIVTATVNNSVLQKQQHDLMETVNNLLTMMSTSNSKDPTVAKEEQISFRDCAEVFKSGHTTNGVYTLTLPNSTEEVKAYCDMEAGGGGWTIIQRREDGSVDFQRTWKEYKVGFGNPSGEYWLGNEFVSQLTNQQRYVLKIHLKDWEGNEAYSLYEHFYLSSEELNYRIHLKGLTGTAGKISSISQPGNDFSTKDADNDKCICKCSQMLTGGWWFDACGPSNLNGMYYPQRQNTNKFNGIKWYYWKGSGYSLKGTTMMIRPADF
As to the kind of experiment: competition ELISA, FLAG-cAng2 on coated cTie2-Fc. The method, then:
as §1

B1: VHH 22G11 (VHH)
VHH: EVQLVESGGGLVQAGGSLRLSCAVSGFTFDDYAIGWFRQAPGKEREGVSCISRSDGSPYYADSVKGRFTISSDNAKGTVYLQMSSLKPEDTAVYYCAASWSGAYYSGTYYCDRLYEYDAWGQGTQVTVSS
notes: Tested as periplasmic extract; also called 022G11; not shown: C-terminal c-myc tag and His6 tag
With B1, in assay [1], the “% inh” value is 98%.

B2: VHH 25F01 (VHH)
VHH: EVQLVESGGGLVQAGGSLRLSCAVSGLPFDDYVIGWFRQAPGKEREGVSCISSSDGSTYYADSVKGRFTISSDNAKNTVYLQMNSLKPEDTAAYYCAAGGPRINIATMTCSHDEYEYDYWGQGTQVTVSS
notes: also called 025F01; not shown: C-terminal c-myc tag and His6 tag
As for B2, the IC50 in assay [2] stood at 13.3 nM. In addition, the “% inh” value in assay [1] came to 42%.

B3: VHH 15H04 (VHH)
VHH: EVQLVESGGGLVQAGGSLGLSCAASERTLPSYVMGWFRQAPGKELEFVAGISWSSGRTYYTDSVKGRFTISRDAAENTWYLQMNSLKPEDTAVYYCASNSVSEPTLHTWQYEASYDYWGQGTQVTVSS
notes: also called 015H04; not shown: C-terminal c-myc tag and His6 tag
Consider B3, for which, in assay [2], the IC50 came out at 125 nM. Moreover, the “% inh” value in assay [1] worked out at 38%.

B4: VHH 11B07 (VHH)
VHH: EVQLVESGGGLVQVGDSLRLSCAASGRTFSTYLMVGWFRQAPGKEREFAAGIWSSGDTAYADSVRGRFTISRDNAKNTVYLQMNSLKTEDTAVYYCAGSYDGNYYIPGFYKDWGQGTQVTVSS
notes: also called 011B07; not shown: C-terminal c-myc tag and His6 tag
Consider B4, for which the IC50 in assay [3] was determined as 39.7 nM; in assay [2], 21 nM; in assay [7], 24.8 nM. Besides, the results for the equilibrium dissociation constant (Kd) in assay [4], in assay [5] and in assay [6] were 29 nM, 6.1 nM and 6.7 nM, respectively. The koff stood at 0.14 s⁻¹ in assay [4], 0.073 s⁻¹ in assay [5] and 0.062 s⁻¹ in assay [6]. Also, the values for the kon in assay [4], in assay [5] and in assay [6] were 4.8e+06 M⁻¹ s⁻¹, 1.2e+07 M⁻¹ s⁻¹ and 9.2e+06 M⁻¹ s⁻¹, respectively.

B5: VHH 24B05 (VHH)
VHH: EVQLVESGGGLVQPGGSLRLSCAASGFTLDYYAIGWFRQAPGKEWEGVSCISSSDGSTYYADSVKGRFTISRDNAKNTVYLQMNSLKPEDTAVYYCATDSIVCGSYYGMDYWGKGTQVTVSS
notes: also called 024B05; not shown: C-terminal c-myc tag and His6 tag
For the molecule B5, the IC50 turned out to be 1.1 nM in assay [3], 1.5 nM in assay [2] and 2.1 nM in assay [7]. The Kd in assay [4] worked out at 1.7 nM; in assay [5] it was 0.59 nM; in assay [6] it was 0.96 nM. Also, the koff in assay [4] is 0.0029 s⁻¹; in assay [5], 0.0024 s⁻¹; in assay [6], 0.0025 s⁻¹. The kon in assay [4] was 1.7e+06 M⁻¹ s⁻¹; in assay [5] it was 4.1e+06 M⁻¹ s⁻¹; in assay [6], 2.6e+06 M⁻¹ s⁻¹. Moreover, the “% inh” value in assay [1] came to 98%.
